Laboratory results published in US12228572B2, “Enhanced expression of polo-like kinase 3 (PLK3) in human immunodeficiency virus (HIV)-infected cells” (priority 2021, dated 2025).
Where “and” joins values, the source holds several entries; their conditions need not be identical. Identical values can stand only once.

Tests used:
HIV-1 [1] = conditions: overexpression of the PLK3 protein
Description: Specific test steps are as follows. All RNAs were extracted for qPCR to measure the Gag transcription level of HIV-1 (FIG. 4). Cells were collected for a flow cytometry test, and the expression level of an HIV-1 p24 protein was detected by using specific antibodies (FIG. 5).

hepatitis B virus (HBV) = assay: HBs ELISA of HBV virus particles in supernatant of 293T cells treated with HBV replicator; type: cell-based; conditions: overexpression in 293T cells, HBV driven by CMV promoter, 48 hours
HIV-1AD8 = assay: Infectivity of supernatant from transfected 293T cells treated with pAD8, on TZM-bl cells; type: cell-based; conditions: 48 hours after transfection
HIV-1BaL = assay: Infectivity of supernatant from transfected 293T cells treated with pBaL, on TZM-bl cells; type: cell-based; conditions: 48 hours after transfection
HIV-189.6 = assay: Infectivity of supernatant from transfected 293T cells treated with p89.6, on TZM-bl cells; type: cell-based; conditions: 48 hours after transfection
HIV-2ROD = assay: Infectivity of supernatant from transfected 293T cells treated with pHIV-2ROD, on TZM-bl cells; type: cell-based; conditions: 48 hours after transfection
SIVagm = assay: Infectivity of supernatant from transfected 293T cells treated with pSIVagm, on TZM-bl cells; type: cell-based; conditions: 48 hours after transfection
HIV-1 [2] = tested on: HIV-1
HIV-1 [3] = conditions: overexpression of the PLK3 protein; remark: listed apart in the source
HIV-1 [4] = conditions: overexpression of the PLK3 protein; remark: listed apart in the source
HIV-1 [5] = tested on: HIV-1; remark: listed apart in the source

B1: PLK3 protein: human PLK3 protein overexpressed from a 3× FLAG-labeled PLK3 protein expression vector (protein, UniProt Q9H4B4 1-646, looked up)
chain: MEPAAGFLSPRPFQRAAAAPAPPAGPGPPPSALRGPELEMLAGLPTSDPGRLITDPRSGRTYLKGRLLGKGGFARCYEATDTETGSAYAVKVIPQSRVAKPHQREKILNEIELHRDLQHRHIVRFSHHFEDADNIYIFLELCSRKSLAHIWKARHTLLEPEVRYYLRQILSGLKYLHQRGILHRDLKLGNFFITENMELKVGDFGLAARLEPPEQRKKTICGTPNYVAPEVLLRQGHGPEADVWSLGCVMYTLLCGSPPFETADLKETYRCIKQVHYTLPASLSLPARQLLAAILRASPRDRPSIDQILRHDFFTKGYTPDRLPISSCVTVPDLTPPNPARSLFAKVTKSLFGRKKKSKNHAQERDEVSGLVSGLMRTSVGHQDARPEAPAASGPAPVSLVETAPEDSSPRGTLASSGDGFEEGLTVATVVESALCALRNCIAFMPPAEQNPAPLAQPEPLVWVSKWVDYSNKFGFGYQLSSRRVAVLFNDGTHMALSANRKTVHYNPTSTKHFSFSVGAVPRALQPQLGILRYFASYMEQHLMKGGDLPSVEEVEVPAPPLLLQWVKTDQALLMLFSDGTVQVNFYGDHTKLILSGWEPLLVTFVARNRSACTYLASHLRQLGCSPDLRQRLRYALRLLRDRSPA
modifications: full-length 3xFLAG tag
notes: human PLK3 protein overexpressed from a 3× FLAG-labeled PLK3 protein expression vector
transcription level of virus Gag in cells (HIV-1 [1]): not affected | virus Gag protein level (HIV-1 [1]): obviously reduced | replication and release of the HBV (hepatitis B virus (HBV)): not affected | ability to limit infection with HIV-1AD8 (HIV-1AD8): has an ability to limit infection | ability to limit infection with HIV-1BaL (HIV-1BaL): has an ability to limit infection | ability to limit infection with HIV-189.6 (HIV-189.6): has an ability to limit infection | ability to limit infection with HIV-2ROD (HIV-2ROD): has an ability to limit infection | ability to limit infection with SIVagm (SIVagm): has an ability to limit infection | HIV infectivity reduced to fraction of original level (HIV-1 [2]; 293T cells with vs without PLK3 protein expression, maximum reduction, 48 hours after transfection): about 1/150 | HIV-1 infectivity as fraction of that of the negative control group (HIV-1 [2]; different expression amounts, 293T cells, pNL4.3, 48 hours): 1/11 and 1/115 | content of core antigen p24 of virus particles in cultured supernatant (HIV-1 [3]): greatly decreased | content of genomic RNA of the virus particles in cultured supernatant (HIV-1 [4]): greatly decreased | ability to block HIV-1 infection (HIV-1 [5]): extremely strong ability to block HIV-1 infection
